Source: paper PMC5570508, “Structural analysis of P. falciparum KAHRP and PfEMP1 complexes with host erythrocyte spectrin suggests a model for cytoadherent knob protrusions” (PLoS Pathogens, 2017)

B1: KAHRP 5´-repeat scrambled sequence, Scramble 3 (peptide)
chain: CHDNKGKKSHDSSGDKKHKNKKSKKKKESPTVDKKEKHEVKKKHKNKKDDVHSEEASKEENKKTEKGKNEKESNAKKSKNSHHDSKKGKEHEGSSKNKDHDKKEKNSDESKKGES
modifications: 5-carboxyfluorescein (5-FAM) on a single cysteine at the protein N-terminus
notes: amino acid content of the KAHRP 5´ repeat, randomly scrambled; also called scrambled peptide; source: E. coli, recombinant, purified as the KAHRP fragments; not shown: His10, N-terminal, cleaved
B2: KAHRP 5´-repeat scrambled sequence, Scramble 1 (peptide)
chain: CGGSDNSEKNKKEHKKEKSAHEKEKDKKAEHKKDKDGSKKSSEKKKNSTKEHESSEHNHSEHKKSDNHKKKKENKEDDSEKEKNKKSDVVSDNKKTHKKGGKKKSKPKGNKSVHD
modifications: 5-carboxyfluorescein (5-FAM) on a single cysteine at the protein N-terminus
notes: as for B1
B3: KAHRP 5´-repeat scrambled sequence, Scramble 4 (peptide)
chain: CESNKKNGHEKGGKKSESKHKKKDHAEKEPKNKKGAHHDDSDKSKTKHNSESDEKVHKSESKEKSKDKVGNKGKEKKVSNSEKKDKNKKDHSHSKETKEKDEKDKKHKSSNKENK
modifications: 5-carboxyfluorescein (5-FAM) on a single cysteine at the protein N-terminus
notes: as for B1
B4: KAHRP 5´-repeat scrambled sequence, Scramble 2 (peptide)
chain: CEKSDDKKESKSKHDGSVKKKSEEKKKDNESSTKSDGKNKKNKKHNEHESKHEHKGEGKKKEHGSNEDHKKKNDNEVKGKHKKSPKKKAETKKNSSHDSDKKEKDSSKKVHNEAK
modifications: 5-carboxyfluorescein (5-FAM) on a single cysteine at the protein N-terminus
notes: as for B1

target: T1, spectrin β chain domains 10–14 (human, UniProt P11277 1272-1804); assay: fluorescence polarisation; titration: 5-FAM-labeled protein at 0.5 or 1 μM titrated with unlabeled protein; 20°C; analysis buffer (20 mM NaH2PO4, 50 mM NaCl, 1 mM DTT pH 7); single site binding model; details: both partners purified
T1 construct: human erythrocyte β spectrin, UniProt P11277, residues 1272-1804; also called β10–14; source: E. coli Rosetta2(DE3), purified (Talon, Q-Sepharose, Superdex 75 or 200); not shown: His10 or His6 (modified pET16b or pET15b), N-terminal, cleaved
T1 sequence (looked up): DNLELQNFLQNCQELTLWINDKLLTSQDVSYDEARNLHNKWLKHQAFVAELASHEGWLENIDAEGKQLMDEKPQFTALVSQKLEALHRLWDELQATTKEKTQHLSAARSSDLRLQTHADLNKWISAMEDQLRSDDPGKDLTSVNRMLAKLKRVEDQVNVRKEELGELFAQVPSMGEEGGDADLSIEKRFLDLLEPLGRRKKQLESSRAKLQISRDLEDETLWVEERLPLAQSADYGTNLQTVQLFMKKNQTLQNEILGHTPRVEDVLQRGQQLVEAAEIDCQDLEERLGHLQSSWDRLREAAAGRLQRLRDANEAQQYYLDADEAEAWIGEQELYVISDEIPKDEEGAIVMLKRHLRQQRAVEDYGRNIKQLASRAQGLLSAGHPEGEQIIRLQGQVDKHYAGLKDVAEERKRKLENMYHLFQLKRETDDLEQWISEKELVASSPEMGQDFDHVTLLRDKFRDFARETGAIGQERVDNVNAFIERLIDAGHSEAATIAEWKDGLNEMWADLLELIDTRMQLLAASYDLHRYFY

| Binder | binding result |
| --- | --- |
| B1 | binds |
| B2 | binds |
| B3 | binds |
| B4 | binds |
